According to paper PMC4346921, “Identification of the Specific Interactors of the Human Lariat RNA Debranching Enzyme 1 Protein” (International Journal of Molecular Sciences, 2015):

Biological target: T1, GST-hDbr1 (human, UniProt Q9UK59-1 1-544)
T1 construct: human Dbr1, cDNA NM_016216 inserted into BamHI and XhoI sites of GEX-6P-1; also called GST-hDbr1 protein; recombinant Dbr1 protein fused to GST; source: E. coli BL21 (DE3) CodonPlus-RIPL, purified (Glutathione Sepharose)
T1 sequence (looked up): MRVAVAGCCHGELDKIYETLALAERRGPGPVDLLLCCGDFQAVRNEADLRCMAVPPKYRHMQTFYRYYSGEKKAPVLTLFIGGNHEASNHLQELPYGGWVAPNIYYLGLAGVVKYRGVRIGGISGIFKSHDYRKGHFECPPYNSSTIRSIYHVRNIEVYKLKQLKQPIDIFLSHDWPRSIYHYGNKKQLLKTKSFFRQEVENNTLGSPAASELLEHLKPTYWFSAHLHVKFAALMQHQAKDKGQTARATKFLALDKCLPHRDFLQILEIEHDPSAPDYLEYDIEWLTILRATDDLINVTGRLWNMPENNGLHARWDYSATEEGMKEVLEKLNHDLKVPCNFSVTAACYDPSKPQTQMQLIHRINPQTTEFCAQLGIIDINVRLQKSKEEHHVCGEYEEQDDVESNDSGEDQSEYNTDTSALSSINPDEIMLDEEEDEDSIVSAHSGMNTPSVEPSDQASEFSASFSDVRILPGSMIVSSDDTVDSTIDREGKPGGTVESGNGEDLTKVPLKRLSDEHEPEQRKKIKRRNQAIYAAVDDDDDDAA
Assay: pull-down; 2 μg purified His-tagged (T7-His) hDrn1 incubated with 5 μg GST or GST-hDbr1; bound proteins detected by Western blotting with anti-T7 tag antibody
Details: both partners purified

binding result: binds
B1: T7-His-hDrn1 (natural protein, human, UniProt Q69YN2-1 1-538, looked up)
chain: MAQKPLRLLACGDVEGKFDILFNRVQAIQKKSGNFDLLLCVGNFFGSTQDAEWEEYKTGIKKAPIQTYVLGANNQETVKYFQDADGCELAENITYLGRKGIFTGSSGLQIVYLSGTESLNEPVPGYSFSPKDVSSLRMMLCTTSQFKGVDILLTSPWPKCVGNFGNSSGEVDTKKCGSALVSSLATGLKPRYHFAALEKTYYERLPYRNHIILQENAQHATRFIALANVGNPEKKKYLYAFSIVPMKLMDAAELVKQPPDVTENPYRKSGQEASIGKQILAPVEESACQFFFDLNEKQGRKRSSTGRDSKSSPHPKQPRKPPQPPGPCWFCLASPEVEKHLVVNIGTHCYLALAKGGLSDDHVLILPIGHYQSVVELSAEVVEEVEKYKATLRRFFKSRGKWCVVFERNYKSHHLQLQVIPVPISCSTTDDIKDAFITQAQEQQIELLEIPEHSDIKQIAQPGAAYFYVELDTGEKLFHRIKKNFPLQFGREVLASEAILNVPDKSDWRQCQISKEDEETLARRFRKDFEPYDFTLDD
notes: Cwf19L1/hDrn1 cDNA (NM_018294), same fragment as in myc-/Flag-hDrn1, between BamHI and XhoI sites of pET-28a; pET-28a with BamHI/XhoI would place the His and T7 tags at the N-terminus (surmised); also called T7- and His-tagged hDrn1 protein; His-tagged hDrn1; source: E. coli BL21 (DE3) CodonPlus-RIPL, purified (Ni-NTA)
